Test results published in patent US20080081047A1 (published 2008).
Changes are numbered by the printed parent chain.

B1: F26G6 (antibody, V domains shown)
VH: QVQLQQPGAELVKPGASVKVSCKASGYTFTNYWIHWVKQRPGQGLEWIGEINPGNGRTNYNGNFMNKATLTVDKSSNTAYMQLSSLTSEDSAVYHCARLDYWGQGTTLTVSS
VL: ELVMTQSPASLSVATGKKVTIRCISSTDIDDDMNWYQQKAGKPPKLLISEGNIFSPGVPSRFSSSGNGTDFVFTVENTLSEDVADNYCLQSDNMPFTFGSGTKLGIKR
B2: F26G8 (antibody, V domains shown)
VH: VQLLESGAELVKPGASVKVSCKASGYTFTSYWIHWVKQRPGQGLEWIGEINPSNGRTNYNGNFESKATLTVDKSSNTAYMHLSSLTYEDSAVYHCTRLDYWGQGTTLTVSS
VL: B1 VL with A14I, S26N, M33L, Y36S, Q38L, K42E, V75I, D85N, L89F, G105E
B3: F26G18 (antibody, V domains shown)
VH: LVQLEESGTVLPRPGASVKMSCKASGYTFTSYWMHWVKQRPGQGLEWIGAIYPGNSDTNYNQKFKGRATLTAVTSTSTASMELSSLTNEDSAVYYCTRDGYGSLYYYAMDFWGQGTSVTVSS
VL: ELVMTQSPSSLSASLGDRVTISCRASQDISNYLNWYQQKPDGTVKLLIYYTSRLHAGVPSRFSGSGSGTDYSLTISNLEQEDIATYFCQQGYTLPYTFGGGTKLEIKR
B4: F26G19 (antibody, V domains shown)
VH: EVQLEESGTVLARPGASVKMSCKASGYTFTTYRMHWIKQRPGQGLEWIGAIYPGNSDTTYNQKFKDKAKLTAVTSTSSAYMELSSLTNEDSAVYFCTREGIPQLLRTLDYWGQGTSVTVSS
VL: DILMTQSPSSLSASLGERVSLTCRASQEISGYLSWLQEKPDGTIKRLIYAASTLDSGVPKRFSGSRSGSDYSLTISSLESEDFADYYCLQYVSYPWTFGGGTKLEIKR

Each binder was assayed against T1, SARS-HCoV spike protein (SARS-coronavirus (Tor-3 strain), UniProt P59594 14-1255) (assay: ELISA, native gradient purified virus coated at 32 ng/well).

Binder | ELISA OD 405 nm, Viral Lysate (native) [OD 405 nm]
B1 | 1.6
B2 | 1.41
B3 | 1.81
B4 | 1.5

These binders were tested against T1, SARS-HCoV spike protein (assay: ELISA, virus heated 100 C 10 min, coated at 32 ng/well).

Binder | ELISA OD 405 nm, Denatured Lysate [OD 405 nm]
B1 | 0.6
B2 | 0.497
B3 | 0.501
B4 | 0.253

The binders below were run against T1, SARS-HCoV spike protein (assay: ELISA, OD on native virus against OD on heat-denatured virus).

Binder | O.D. Reduction, Fold [fold] | O.D. Reduction, Percent [%]
B1 | 2.7 | 62
B2 | 2.8 | 29
B3 | 3.6 | 72
B4 | 6 | 83
